Each block holds one molecule with its values, some of them ahead of it.
Assays:
TLR4 = target: T1, TLR4 (Homo sapiens, UniProt O00206); assay: FRET with TLR4 on MonoMac 6 cells; assay type: binding
T1 construct: endogenous in cells; host or cells: freshly isolated human monocytes; human monocyte-derived DC
Description: (§1) Cell labeling for FRET. MonoMac 6 cells (a human monocytic cell line) were labeled with 100 μl of a mixture of donor conjugated antibody (Cy3) and acceptor conjugated antibody (Cy5). For labelling of Cpn10, an anti-Cpn10 rabbit polyclonal antibody was used. […] The cells were fixed in order to prevent potential re-organisation of the proteins during the course of the experiment. Confocal imaging. Cells were imaged on a Carl Zeiss, Inc. LSM510 confocal microscope (with an Axiovert 200 fluorescent microscope) using a 1.4 NA 63× Zeiss objective. The images were analysed using LSM 2.5 image analysis software (Carl Zeiss, Inc.). Cy3 and Cy5 were detected using the appropriate filter sets. Using typical exposure times for image acquisition (less than 5 s), no fluorescence was observed from a Cy3-labelled specimen using the Cy5 filters, nor was Cy5 fluorescence detected using the Cy3 filter sets. FRET measurements. […] In the present study, FRET was measured using a method as previously described (Kenworthy and […] (1998) Journal of Cell Biology 142: 69-84; Kenworthy and […] (1998) in Gelb, M. H. (Ed.) Methods in molecular Biology. Humana Press Inc, Totowa, N.J. pp 37-49). Briefly, samples were labeled with donor and acceptor conjugated antibodies, and energy transfer was detected as an increase in donor fluorescence (dequenching) after complete photobleaching of the acceptor molecule. […]

CD14 = target: T2, CD14 (Homo sapiens, UniProt P08571); assay: FRET with CD14 on MonoMac 6 cells; assay type: binding
T2 construct: MonoMac 6 cells (a human monocytic cell line); endogenous in cells; host or cells: MonoMac 6
T2 sequence (P08571 20-345): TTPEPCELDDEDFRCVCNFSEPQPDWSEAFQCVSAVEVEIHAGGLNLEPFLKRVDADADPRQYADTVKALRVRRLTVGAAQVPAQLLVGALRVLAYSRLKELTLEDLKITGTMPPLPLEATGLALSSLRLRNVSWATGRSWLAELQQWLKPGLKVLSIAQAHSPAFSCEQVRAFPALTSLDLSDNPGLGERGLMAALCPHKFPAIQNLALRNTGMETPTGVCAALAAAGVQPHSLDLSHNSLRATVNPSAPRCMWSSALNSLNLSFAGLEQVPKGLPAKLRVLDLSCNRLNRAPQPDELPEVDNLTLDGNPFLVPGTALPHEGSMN
Description: as §1

GM1 = assay: FRET with GM1 (lipid rafts) on MonoMac 6 cells; assay type: binding, human; conditions: donor GM1
Description: Cell labeling for FRET. MonoMac 6 cells (a human monocytic cell line) were labeled with 100 μl of a mixture of donor conjugated antibody (Cy3) and acceptor conjugated antibody (Cy5). For labelling of Cpn10, an anti-Cpn10 rabbit polyclonal antibody was used. The cells were rinsed twice in PBS/0.02% BSA, prior to fixation with 4% formaldehyde for 15 min. The cells were fixed in order to prevent potential re-organisation of the proteins during the course of the experiment. Confocal imaging. Cells were imaged on a Carl Zeiss, Inc. LSM510 confocal microscope (with an Axiovert 200 fluorescent microscope) using a 1.4 NA 63× Zeiss objective. The images were analysed using LSM 2.5 image analysis software (Carl Zeiss, Inc.). Cy3 and Cy5 were detected using the appropriate filter sets. Using typical exposure times for image acquisition (less than 5 s), no fluorescence was observed from a Cy3-labelled specimen using the Cy5 filters, nor was Cy5 fluorescence detected using the Cy3 filter sets. FRET measurements. FRET is a non-invasive imaging technique used to determine molecular proximity. […]
In the present study, FRET was measured using a method as previously described (Kenworthy and Edidin (1998) Journal of Cell Biology 142: 69-84; Kenworthy and Edidin (1998) in Gelb, M. H. (Ed.) Methods in molecular Biology. Humana Press Inc, Totowa, N.J. pp 37-49). […]

Cpn10 promoter = Cpn10 promoter luciferase reporter (pCAT/LUC-CPN) in RAW264.7 cells; assay type: cell-based, mouse; conditions: optimal agonist concentrations (FIG. 18H): IFNγ 1 ng/ml, IL-1β 1 ng/ml, TNF-α 100 ng/ml
Excerpt: Reagents. Recombinant human Cpn10 was produced to GMP specifications by BresaGen Limited (Adelaide, Aus) essentially as described previously (Johnson, B. 2005. J. Biol Chem 280:4037-4047). […] For FACS analysis, a cysteine residue was engineered onto the C-terminus of Cpn10 and labeled with AlexFluor647 (Invitrogen) according to manufacturer's instructions. […] TLR ligands and cytokines included: E. coli LPS (strain 055:B5, Sigma), E. coli ultra-pure LPS (0111:B4 Sigma), S. aureus LTA, B. subtilis LTA, S. aureus PGN, B. subtilis PGN, zymosan cell wall from S. cerevisae, poly(I:C), imiquimod R837, CpG ODN 1826 and ODN2216, GpC ODN1826 control, (all from Invivogen, San Diego, Calif.), recombinant mouse IFNγ, (Chemicon), IL-1β (PeproTech), and recombinant human TNF-α (Invivogen). Antibodies. Rabbit polyclonal antibodies were raised against Cpn10 and affinity purified at CBio. […] After 24 h cells were harvested and cell viability assessed by trypan blue dye exclusion. […] Cells were washed, harvested in Cell Culture Lysis Reagent (CCLR, Promega) and firefly luciferase signal measured using the Luciferase Assay System (Promega) and the Wallac Victor 2 Multilabel Counter (Perkin-Elmer). […] Cells were assessed for viability, pooled per condition (n=4), pelleted by centrifugation and resuspended in CCLR.

T1 sequence (O00206 24-839): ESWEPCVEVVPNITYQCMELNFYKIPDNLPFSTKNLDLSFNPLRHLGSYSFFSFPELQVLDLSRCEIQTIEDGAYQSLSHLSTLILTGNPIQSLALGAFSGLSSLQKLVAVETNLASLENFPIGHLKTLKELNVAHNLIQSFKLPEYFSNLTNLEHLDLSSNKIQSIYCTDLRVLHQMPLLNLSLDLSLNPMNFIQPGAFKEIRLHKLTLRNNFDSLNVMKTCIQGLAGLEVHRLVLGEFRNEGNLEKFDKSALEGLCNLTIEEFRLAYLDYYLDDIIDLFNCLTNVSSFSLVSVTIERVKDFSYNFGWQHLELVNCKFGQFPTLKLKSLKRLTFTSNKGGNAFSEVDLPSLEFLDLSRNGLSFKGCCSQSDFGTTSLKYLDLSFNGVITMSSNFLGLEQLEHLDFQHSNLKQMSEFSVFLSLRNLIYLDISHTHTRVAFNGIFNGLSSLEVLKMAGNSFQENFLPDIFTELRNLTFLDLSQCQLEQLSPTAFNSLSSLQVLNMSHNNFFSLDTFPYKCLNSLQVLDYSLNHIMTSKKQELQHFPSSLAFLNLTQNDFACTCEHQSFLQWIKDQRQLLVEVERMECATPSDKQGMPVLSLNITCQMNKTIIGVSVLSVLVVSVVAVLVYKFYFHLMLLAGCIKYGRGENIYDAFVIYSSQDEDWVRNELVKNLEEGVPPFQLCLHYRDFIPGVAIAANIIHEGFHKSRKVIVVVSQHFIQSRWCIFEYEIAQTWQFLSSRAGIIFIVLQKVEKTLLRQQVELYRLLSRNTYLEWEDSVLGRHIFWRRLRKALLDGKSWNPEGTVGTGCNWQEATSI

E ± ΔE (%) energy transfer efficiency (TLR4; MM6 cells stimulated with LPS): 6 ± 1.0%
E ± ΔE (%) energy transfer efficiency (TLR4; Unstimulated MM6 cells): 5 ± 1.0%
E ± ΔE (%) energy transfer efficiency (CD14; MM6 cells stimulated with LPS): 4 ± 2.0%
E ± ΔE (%) energy transfer efficiency (CD14; Unstimulated MM6 cells): 6 ± 0.5%
B1: Hsp60: chaperonin 60, protein folding partner of Cpn10 (protein)
chain: AKDVKFGADARALMLQGVDLLADAVAVTMGPKGRTVIIEQSWGSPKVTKDGVTVAKSIDLKDKYKNIGAKLVQDVANNTNEEAGDGTTTATVLARSIAKEGFEKISKGANPVEIRRGVMLAVDAVIAELKKQSKPVTTPEEIAQVATISANGDKEIGNIISDAMKKVGRKGVITVKDGKTLNDELEIIEGMKFDRGYISPYFINTSKGQKCEFQDAYVLLSEKKISSIQSIVPALEIANAHRKPLVIIAEDVDGEALSTLVLNRLKVGLQVVAVKAPGFGDNRKNQLKDMAIATGGAVFGEEGLTLNLEDVQPHDLGKVGEVIVTKDDAMLLKGKGDKAQIEKRIQEIIEQLDVTTSEYEKEKLNERLAKLSDGVAVLKVGGTSDVEVNEKKDRVTDALNATRAAVEEGIVLGGGCALLRCIPALDSLTPANEDQKIGIEIIKRTLKIPAMTIAKNAGVEGSLIVEKIMQSSSEVGYDAMAGDFVNMVEKGIIDPTKVVRTALLDAAGVASLLTTAEVVVTEIPKEEKDPGMGAMGGMGGGMGGGMF
E ± ΔE (%) energy transfer efficiency (GM1; MM6 cells stimulated with LPS): 8 ± 2.0%
E ± ΔE (%) energy transfer efficiency (GM1; Unstimulated MM6 cells): 6 ± 0.5%

B2: IFNγ: recombinant mouse IFNγ (Chemicon), non-TLR agonist (protein, UniProt P01580 23-155, looked up)
Interferon gamma: HGTVIESLESLNNYFNSSGIDVEEKSLFLDIWRNWQKDGDMKILQSQIISFYLRLFEVLKDNQAISNNISVIESHLITTFFSNSKAKKDAFMSIAKFEVNNPQVQRQAFNELIRVVHQLLPESSLRKRKRSRC
up-regulation of the Cpn10 promoter (Cpn10 promoter): did not induce substantial up-regulation
